Measurements as given in US9580731B2, “Methods of producing 7-carbon chemicals via c1 carbon chain elongation associated with coenzyme B synthesis” (INVISTA North America S.á r.l., priority 2012, dated 2017).

B1: SEQ ID NO 13: Vibrio fluvialis ω-transaminase, Genbank Accession No. AEA39183.1 (protein, listed as Vibrio fluvialis)
chain: MNKPQSWEARAETYSLYGFTDMPSLHQRGTVVVTHGEGPYIVDVNGRRYLDANSGLWNMVAGFDHKGLIDAAKAQYERFPGYHAFFGRMSDQTVMLSEKLVEVSPFDSGRVFYTNSGSEANDTMVKMLWFLHAAEGKPQKRKILTRWNAYHGVTAVSASMTGKPYNSVFGLPLPGFVHLTCPHYWRYGEEGETEEQFVARLARELEETIQREGADTIAGFFAEPVMGAGGVIPPAKGYFQAILPILRKYDIPVISDEVICGFGRTGNTWGCVTYDFTPDAIISSKNLTAGFFPMGAVILGPELSKRLETAIEAIEEFPHGFTASGHPVGCAIALKAIDVVMNEGLAENVRRLAPRFEERLKHIAERPNIGEYRGIGFMWALEAVKDKASKTPFDGNLSVSERIANTCTDLGLICRPLGQSVVLCPPFILTEAQMDEMFDKLEKALDKVFAEVA
B2: SEQ ID NO 8: Chromobacterium violaceum ω-transaminase, Genbank Accession No. AAQ59697.1 (protein, listed as Chromobacterium violaceum)
chain: MQKQRTTSQWRELDAAHHLHPFTDTASLNQAGARVMTRGEGVYLWDSEGNKIIDGMAGLWCVNVGYGRKDFAEAARRQMEELPFYNTFFKTTHPAVVELSSLLAEVTPAGFDRVFYTNSGSESVDTMIRMVRRYWDVQGKPEKKTLIGRWNGYHGSTIGGASLGGMKYMHEQGDLPIPGMAHIEQPWWYKHGKDMTPDEFGVVAARWLEEKILEIGADKVAAFVGEPIQGAGGVIVPPATYWPEIERICRKYDVLLVADEVICGFGRTGEWFGHQHFGFQPDLFTAAKGLSSGYLPIGAVFVGKRVAEGLIAGGDFNHGFTYSGHPVCAAVAHANVAALRDEGIVQRVKDDIGPYMQKRWRETFSRFEHVDDVRGVGMVQAFTLVKNKAKRELFPDFGEIGTLCRDIFFRNNLIMRACGDHIVSAPPLVMTRAEVDEMLAVAERCLEEFEQTLKARGLA

Assays:
Format in all cases: biochemical
[1] = ω-transaminase activity assay, reverse direction, 7-aminoheptanoate to pimelate semialdehyde; details: cell free extract, 10 mM 7-aminoheptanoate, 10 mM pyruvate, 25° C., 4 h, against empty vector control, FIG. 15
Procedure: (§1) A sequence encoding an N-terminal His-tag was added to the genes from Chromobacterium violaceum, Pseudomonas syringae, Rhodobacter sphaeroides, and Vibrio Fluvialis encoding the ω-transaminases of SEQ ID NOs: 8, 10, 11 and 13, respectively (see FIG. 7) such that N-terminal HIS tagged ω-transaminases could be produced. Each of the resulting modified genes was cloned into a pET21a expression vector under control of the T7 promoter and each expression vector was transformed into a BL21[DE3] E. coli host. The resulting recombinant E. coli strains were cultivated at 37° C. in a 250 mL shake flask culture containing 50 mL LB media and antibiotic selection pressure, with shaking at 230 rpm. Each culture was induced overnight at 16° C. using 1 mM IPTG.
(§2) The pellet from each induced shake flask culture was harvested via centrifugation. Each pellet was resuspended and lysed via sonication. The cell debris was separated from the supernatant via centrifugation and the cell free extract was used immediately in enzyme activity assays.
Enzyme activity assays in the reverse direction (i.e., 7-aminoheptanoate to pimelate semialdehyde) were performed in a buffer composed of a final concentration of 50 mM HEPES buffer (pH=7.5), 10 mM 7-aminoheptanoate, 10 mM pyruvate and 100 μM pyridoxyl 5′ phosphate. Each enzyme activity assay reaction was initiated by adding cell free extract of the ω-transaminase gene product or the empty vector control to the assay buffer containing the 7-aminoheptanoate and incubated at 25° C. for 4 h, with shaking at 250 rpm. The formation of L-alanine from pyruvate was quantified via RP-HPLC.

[2] = ω-transaminase activity assay, forward direction, pimelate semialdehyde to 7-aminoheptanoate; details: for ω-transaminase activity for converting pimelate semialdehyde to 7-aminoheptanoate (L-alanine to pyruvate): cell free extract, 10 mM pimelate semialdehyde, 10 mM L-alanine, 25° C., 4 h, against empty vector control, FIG. 16; for reversibility of the ω-transaminase activity: pimelate semialdehyde accepted, 7-aminoheptanoate synthesized: conclusion from forward and reverse assays of Example 2
Procedure: as §1, §2
Enzyme activity in the forward direction (i.e., pimelate semialdehyde to 7-aminoheptanoate) was confirmed for the transaminases of SEQ ID NO 10, SEQ ID NO 11 and SEQ ID NO 13. Enzyme activity assays were performed in a buffer composed of a final concentration of 50 mM HEPES buffer (pH=7.5), 10 mM pimelate semialdehyde, 10 mM L-alanine and 100 μM pyridoxyl 5′ phosphate. Each enzyme activity assay reaction was initiated by adding a cell free extract of the ω-transaminase gene product or the empty vector control to the assay buffer containing the pimelate semialdehyde and incubated at 25° C. for 4 h, with shaking at 250 rpm. The formation of pyruvate was quantified via RP-HPLC.

[3] = ω-transaminase activity assay, 7-aminoheptanol to 7-oxoheptanol; details: for ω-transaminase activity for converting 7-aminoheptanol to 7-oxoheptanol (pyruvate to L-alanine): cell free extract, 10 mM 7-aminoheptanol, 10 mM pyruvate, 25° C., 4 h, against empty vector control, FIG. 19; for ω-transaminase acceptance of 7-oxoheptanol, forming 7-aminoheptanol: concluded from reversibility of the ω-transaminase activity (Example 2)
Procedure: A nucleotide sequence encoding an N-terminal His-tag was added to the Chromobacterium violaceum, Pseudomonas syringae and Rhodobacter sphaeroides genes encoding the ω-transaminases of SEQ ID NOs: 8, 10 and 11, respectively (see FIG. 7) such that N-terminal HIS tagged ω-transaminases could be produced. The modified genes were cloned into a pET21a expression vector under the T7 promoter. Each expression vector was transformed into a BL21[DE3] E. coli host. Each resulting recombinant E. coli strain were cultivated at 37° C. in a 250 mL shake flask culture containing 50 mL LB media and antibiotic selection pressure, with shaking at 230 rpm. Each culture was induced overnight at 16° C. using 1 mM IPTG.
as §2
Enzyme activity assays in the reverse direction (i.e., 7-aminoheptanol to 7-oxoheptanol) were performed in a buffer composed of a final concentration of 50 mM HEPES buffer (pH=7.5), 10 mM 7-aminoheptanol, 10 mM pyruvate, and 100 μM pyridoxyl 5′ phosphate. Each enzyme activity assay reaction was initiated by adding cell free extract of the ω-transaminase gene product or the empty vector control to the assay buffer containing the 7-aminoheptanol and then incubated at 25° C. for 4 h, with shaking at 250 rpm. The formation of L-alanine was quantified via RP-HPLC.

Molecule | ω-transaminase activity for converting 7-aminoheptanoate to pimelate semialdehyde (pyruvate to L-alanine) [1] | ω-transaminase activity for converting pimelate semialdehyde to 7-aminoheptanoate (L-alanine to pyruvate) [2] | reversibility of the ω-transaminase activity: pimelate semialdehyde accepted, 7-aminoheptanoate synthesized [2] | ω-transaminase activity for converting 7-aminoheptanol to 7-oxoheptanol (pyruvate to L-alanine) [3] | ω-transaminase acceptance of 7-oxoheptanol, forming 7-aminoheptanol [3]
SEQ ID NO 11: Rhodobacter sphaeroides ω-transaminase, Genbank Accession No. ABA81135.1 | accepted 7-aminoheptanote as substrate | accepted pimelate semialdehyde as substrate | accepted pimelate semialdehyde as substrate and synthesized 7-aminoheptanoate | accepted 7-aminoheptanol as substrate | accept 7-oxoheptanol as substrate
B1 | accepted 7-aminoheptanote as substrate | accepted pimelate semialdehyde as substrate | accepted pimelate semialdehyde as substrate and synthesized 7-aminoheptanoate | – | –
B2 | accepted 7-aminoheptanote as substrate | – | accepted pimelate semialdehyde as substrate and synthesized 7-aminoheptanoate | accepted 7-aminoheptanol as substrate | accept 7-oxoheptanol as substrate
